Measurements: patent publication US11965039B2, “Compstatin analogues and their medical uses” (priority 2018, dated 2024)
Positions of bridges follow the written chain, without caps; N, C: chain ends. Non-standard residues stand in square brackets, D forms with d. Trp(1-Me) = Cn1cc(C[C@H](N)C(=O)O)c2ccccc21; 2Nal = N[C@@H](Cc1ccc2ccccc2c1)C(=O)O; Sar = CNCC(=O)O

B1: Compound 66 (peptide)
peptide: Ac-YCIWQDWGEHRCTGAES-NH2
modifications: disulfide 2-12
SMILES: CC[C@H](C)[C@@H]1NC(=O)[C@@H](NC(=O)[C@H](Cc2ccc(O)cc2)NC(C)=O)CSSC[C@@H](C(=O)N[C@H](C(=O)NCC(=O)N[C@@H](C)C(=O)N[C@@H](CCC(=O)O)C(=O)N[C@@H](CO)C(N)=O)[C@@H](C)O)NC(=O)[C@H](CCCNC(=N)N)NC(=O)[C@H](Cc2c[nH]cn2)NC(=O)[C@H](CCC(=O)O)NC(=O)CNC(=O)[C@H](Cc2c[nH]c3ccccc23)NC(=O)[C@H](CC(=O)O)NC(=O)[C@H](CCC(N)=O)NC(=O)[C@H](Cc2c[nH]c3ccccc23)NC1=O
B2: Compound 72 (peptide)
peptide: Ac-FCI[Trp(1-Me)]QDW[Sar]EHRCTGAES-NH2
modifications: disulfide 2-12
SMILES: CC[C@H](C)[C@@H]1NC(=O)[C@@H](NC(=O)[C@H](Cc2ccccc2)NC(C)=O)CSSC[C@@H](C(=O)N[C@H](C(=O)NCC(=O)N[C@@H](C)C(=O)N[C@@H](CCC(=O)O)C(=O)N[C@@H](CO)C(N)=O)[C@@H](C)O)NC(=O)[C@H](CCCNC(=N)N)NC(=O)[C@H](Cc2c[nH]cn2)NC(=O)[C@H](CCC(=O)O)NC(=O)CN(C)C(=O)[C@H](Cc2c[nH]c3ccccc23)NC(=O)[C@H](CC(=O)O)NC(=O)[C@H](CCC(N)=O)NC(=O)[C@H](Cc2cn(C)c3ccccc23)NC1=O
B3: Compound 57 (peptide)
peptide: Ac-EGSAFCI[Trp(1-Me)]QDWGEHRCTE-NH2
modifications: disulfide 6-16
SMILES: CC[C@H](C)[C@@H]1NC(=O)[C@@H](NC(=O)[C@H](Cc2ccccc2)NC(=O)[C@H](C)NC(=O)[C@H](CO)NC(=O)CNC(=O)[C@H](CCC(=O)O)NC(C)=O)CSSC[C@@H](C(=O)N[C@H](C(=O)N[C@@H](CCC(=O)O)C(N)=O)[C@@H](C)O)NC(=O)[C@H](CCCNC(=N)N)NC(=O)[C@H](Cc2c[nH]cn2)NC(=O)[C@H](CCC(=O)O)NC(=O)CNC(=O)[C@H](Cc2c[nH]c3ccccc23)NC(=O)[C@H](CC(=O)O)NC(=O)[C@H](CCC(N)=O)NC(=O)[C@H](Cc2cn(C)c3ccccc23)NC1=O
B4: Compound 60 (peptide)
peptide: Ac-EGSAFCI[2Nal]QDWGEHRCTE-NH2
modifications: disulfide 6-16
SMILES: CC[C@H](C)[C@@H]1NC(=O)[C@@H](NC(=O)[C@H](Cc2ccccc2)NC(=O)[C@H](C)NC(=O)[C@H](CO)NC(=O)CNC(=O)[C@H](CCC(=O)O)NC(C)=O)CSSC[C@@H](C(=O)N[C@H](C(=O)N[C@@H](CCC(=O)O)C(N)=O)[C@@H](C)O)NC(=O)[C@H](CCCNC(=N)N)NC(=O)[C@H](Cc2c[nH]cn2)NC(=O)[C@H](CCC(=O)O)NC(=O)CNC(=O)[C@H](Cc2c[nH]c3ccccc23)NC(=O)[C@H](CC(=O)O)NC(=O)[C@H](CCC(N)=O)NC(=O)[C@H](Cc2ccc3ccccc3c2)NC1=O
B5: Compound 65 (peptide)
peptide: Ac-YCI[2Nal]QDWGEHRCTGAES-NH2
modifications: disulfide 2-12
SMILES: CC[C@H](C)[C@@H]1NC(=O)[C@@H](NC(=O)[C@H](Cc2ccc(O)cc2)NC(C)=O)CSSC[C@@H](C(=O)N[C@H](C(=O)NCC(=O)N[C@@H](C)C(=O)N[C@@H](CCC(=O)O)C(=O)N[C@@H](CO)C(N)=O)[C@@H](C)O)NC(=O)[C@H](CCCNC(=N)N)NC(=O)[C@H](Cc2c[nH]cn2)NC(=O)[C@H](CCC(=O)O)NC(=O)CNC(=O)[C@H](Cc2c[nH]c3ccccc23)NC(=O)[C@H](CC(=O)O)NC(=O)[C@H](CCC(N)=O)NC(=O)[C@H](Cc2ccc3ccccc3c2)NC1=O
B6: Compound 68 (peptide)
peptide: Ac-YCI[Trp(1-Me)]QDWGEHRCTEAGS-NH2
modifications: disulfide 2-12
SMILES: CC[C@H](C)[C@@H]1NC(=O)[C@@H](NC(=O)[C@H](Cc2ccc(O)cc2)NC(C)=O)CSSC[C@@H](C(=O)N[C@H](C(=O)N[C@@H](CCC(=O)O)C(=O)N[C@@H](C)C(=O)NCC(=O)N[C@@H](CO)C(N)=O)[C@@H](C)O)NC(=O)[C@H](CCCNC(=N)N)NC(=O)[C@H](Cc2c[nH]cn2)NC(=O)[C@H](CCC(=O)O)NC(=O)CNC(=O)[C@H](Cc2c[nH]c3ccccc23)NC(=O)[C@H](CC(=O)O)NC(=O)[C@H](CCC(N)=O)NC(=O)[C@H](Cc2cn(C)c3ccccc23)NC1=O
B7: Compound 64 (peptide)
peptide: Ac-FCI[2Nal]QDWGEHRCTGAES-NH2
modifications: disulfide 2-12
SMILES: CC[C@H](C)[C@@H]1NC(=O)[C@@H](NC(=O)[C@H](Cc2ccccc2)NC(C)=O)CSSC[C@@H](C(=O)N[C@H](C(=O)NCC(=O)N[C@@H](C)C(=O)N[C@@H](CCC(=O)O)C(=O)N[C@@H](CO)C(N)=O)[C@@H](C)O)NC(=O)[C@H](CCCNC(=N)N)NC(=O)[C@H](Cc2c[nH]cn2)NC(=O)[C@H](CCC(=O)O)NC(=O)CNC(=O)[C@H](Cc2c[nH]c3ccccc23)NC(=O)[C@H](CC(=O)O)NC(=O)[C@H](CCC(N)=O)NC(=O)[C@H](Cc2ccc3ccccc3c2)NC1=O
B8: Compound 59 (peptide)
peptide: Ac-EGSAYCI[Trp(1-Me)]QDWGEHRCTE-NH2
modifications: disulfide 6-16
SMILES: CC[C@H](C)[C@@H]1NC(=O)[C@@H](NC(=O)[C@H](Cc2ccc(O)cc2)NC(=O)[C@H](C)NC(=O)[C@H](CO)NC(=O)CNC(=O)[C@H](CCC(=O)O)NC(C)=O)CSSC[C@@H](C(=O)N[C@H](C(=O)N[C@@H](CCC(=O)O)C(N)=O)[C@@H](C)O)NC(=O)[C@H](CCCNC(=N)N)NC(=O)[C@H](Cc2c[nH]cn2)NC(=O)[C@H](CCC(=O)O)NC(=O)CNC(=O)[C@H](Cc2c[nH]c3ccccc23)NC(=O)[C@H](CC(=O)O)NC(=O)[C@H](CCC(N)=O)NC(=O)[C@H](Cc2cn(C)c3ccccc23)NC1=O
B9: Compound 71 (peptide)
peptide: Ac-SEYCI[Trp(1-Me)]QDWGEHRC[Sar]EA-NH2
modifications: disulfide 4-14
SMILES: CC[C@H](C)[C@@H]1NC(=O)[C@@H](NC(=O)[C@H](Cc2ccc(O)cc2)NC(=O)[C@H](CCC(=O)O)NC(=O)[C@H](CO)NC(C)=O)CSSC[C@@H](C(=O)N(C)CC(=O)N[C@@H](CCC(=O)O)C(=O)N[C@@H](C)C(N)=O)NC(=O)[C@H](CCCNC(=N)N)NC(=O)[C@H](Cc2c[nH]cn2)NC(=O)[C@H](CCC(=O)O)NC(=O)CNC(=O)[C@H](Cc2c[nH]c3ccccc23)NC(=O)[C@H](CC(=O)O)NC(=O)[C@H](CCC(N)=O)NC(=O)[C@H](Cc2cn(C)c3ccccc23)NC1=O
B10: Compound 70 (peptide)
peptide: Ac-EGSAYCI[Trp(1-Me)]QEWGEHRC[Sar]E-NH2
modifications: disulfide 6-16
SMILES: CC[C@H](C)[C@@H]1NC(=O)[C@@H](NC(=O)[C@H](Cc2ccc(O)cc2)NC(=O)[C@H](C)NC(=O)[C@H](CO)NC(=O)CNC(=O)[C@H](CCC(=O)O)NC(C)=O)CSSC[C@@H](C(=O)N(C)CC(=O)N[C@@H](CCC(=O)O)C(N)=O)NC(=O)[C@H](CCCNC(=N)N)NC(=O)[C@H](Cc2c[nH]cn2)NC(=O)[C@H](CCC(=O)O)NC(=O)CNC(=O)[C@H](Cc2c[nH]c3ccccc23)NC(=O)[C@H](CCC(=O)O)NC(=O)[C@H](CCC(N)=O)NC(=O)[C@H](Cc2cn(C)c3ccccc23)NC1=O
B11: Compound 69 (peptide)
peptide: Ac-YCI[Trp(1-Me)]QDWGEHRCTESGA-NH2
modifications: disulfide 2-12
SMILES: CC[C@H](C)[C@@H]1NC(=O)[C@@H](NC(=O)[C@H](Cc2ccc(O)cc2)NC(C)=O)CSSC[C@@H](C(=O)N[C@H](C(=O)N[C@@H](CCC(=O)O)C(=O)N[C@@H](CO)C(=O)NCC(=O)N[C@@H](C)C(N)=O)[C@@H](C)O)NC(=O)[C@H](CCCNC(=N)N)NC(=O)[C@H](Cc2c[nH]cn2)NC(=O)[C@H](CCC(=O)O)NC(=O)CNC(=O)[C@H](Cc2c[nH]c3ccccc23)NC(=O)[C@H](CC(=O)O)NC(=O)[C@H](CCC(N)=O)NC(=O)[C@H](Cc2cn(C)c3ccccc23)NC1=O
B12: Compound 62 (peptide)
peptide: Ac-YCI[Trp(1-Me)]QDWGEHRCTGAES-NH2
modifications: disulfide 2-12
SMILES: CC[C@H](C)[C@@H]1NC(=O)[C@@H](NC(=O)[C@H](Cc2ccc(O)cc2)NC(C)=O)CSSC[C@@H](C(=O)N[C@H](C(=O)NCC(=O)N[C@@H](C)C(=O)N[C@@H](CCC(=O)O)C(=O)N[C@@H](CO)C(N)=O)[C@@H](C)O)NC(=O)[C@H](CCCNC(=N)N)NC(=O)[C@H](Cc2c[nH]cn2)NC(=O)[C@H](CCC(=O)O)NC(=O)CNC(=O)[C@H](Cc2c[nH]c3ccccc23)NC(=O)[C@H](CC(=O)O)NC(=O)[C@H](CCC(N)=O)NC(=O)[C@H](Cc2cn(C)c3ccccc23)NC1=O
B13: Compound 58 (peptide)
peptide: Ac-EGSAFCI[Trp(1-Me)]QDWGEHRCEGE-NH2
modifications: disulfide 6-16
SMILES: CC[C@H](C)[C@@H]1NC(=O)[C@@H](NC(=O)[C@H](Cc2ccccc2)NC(=O)[C@H](C)NC(=O)[C@H](CO)NC(=O)CNC(=O)[C@H](CCC(=O)O)NC(C)=O)CSSC[C@@H](C(=O)N[C@@H](CCC(=O)O)C(=O)NCC(=O)N[C@@H](CCC(=O)O)C(N)=O)NC(=O)[C@H](CCCNC(=N)N)NC(=O)[C@H](Cc2c[nH]cn2)NC(=O)[C@H](CCC(=O)O)NC(=O)CNC(=O)[C@H](Cc2c[nH]c3ccccc23)NC(=O)[C@H](CC(=O)O)NC(=O)[C@H](CCC(N)=O)NC(=O)[C@H](Cc2cn(C)c3ccccc23)NC1=O

Target: Human C3 (Complement tech cat #A113c) (human, UniProt P01024 23-1663)
Assay: cell-based or functional assay

Chain of Human C3 (Complement tech cat #A113c) (P01024 23-1663 limits assumed): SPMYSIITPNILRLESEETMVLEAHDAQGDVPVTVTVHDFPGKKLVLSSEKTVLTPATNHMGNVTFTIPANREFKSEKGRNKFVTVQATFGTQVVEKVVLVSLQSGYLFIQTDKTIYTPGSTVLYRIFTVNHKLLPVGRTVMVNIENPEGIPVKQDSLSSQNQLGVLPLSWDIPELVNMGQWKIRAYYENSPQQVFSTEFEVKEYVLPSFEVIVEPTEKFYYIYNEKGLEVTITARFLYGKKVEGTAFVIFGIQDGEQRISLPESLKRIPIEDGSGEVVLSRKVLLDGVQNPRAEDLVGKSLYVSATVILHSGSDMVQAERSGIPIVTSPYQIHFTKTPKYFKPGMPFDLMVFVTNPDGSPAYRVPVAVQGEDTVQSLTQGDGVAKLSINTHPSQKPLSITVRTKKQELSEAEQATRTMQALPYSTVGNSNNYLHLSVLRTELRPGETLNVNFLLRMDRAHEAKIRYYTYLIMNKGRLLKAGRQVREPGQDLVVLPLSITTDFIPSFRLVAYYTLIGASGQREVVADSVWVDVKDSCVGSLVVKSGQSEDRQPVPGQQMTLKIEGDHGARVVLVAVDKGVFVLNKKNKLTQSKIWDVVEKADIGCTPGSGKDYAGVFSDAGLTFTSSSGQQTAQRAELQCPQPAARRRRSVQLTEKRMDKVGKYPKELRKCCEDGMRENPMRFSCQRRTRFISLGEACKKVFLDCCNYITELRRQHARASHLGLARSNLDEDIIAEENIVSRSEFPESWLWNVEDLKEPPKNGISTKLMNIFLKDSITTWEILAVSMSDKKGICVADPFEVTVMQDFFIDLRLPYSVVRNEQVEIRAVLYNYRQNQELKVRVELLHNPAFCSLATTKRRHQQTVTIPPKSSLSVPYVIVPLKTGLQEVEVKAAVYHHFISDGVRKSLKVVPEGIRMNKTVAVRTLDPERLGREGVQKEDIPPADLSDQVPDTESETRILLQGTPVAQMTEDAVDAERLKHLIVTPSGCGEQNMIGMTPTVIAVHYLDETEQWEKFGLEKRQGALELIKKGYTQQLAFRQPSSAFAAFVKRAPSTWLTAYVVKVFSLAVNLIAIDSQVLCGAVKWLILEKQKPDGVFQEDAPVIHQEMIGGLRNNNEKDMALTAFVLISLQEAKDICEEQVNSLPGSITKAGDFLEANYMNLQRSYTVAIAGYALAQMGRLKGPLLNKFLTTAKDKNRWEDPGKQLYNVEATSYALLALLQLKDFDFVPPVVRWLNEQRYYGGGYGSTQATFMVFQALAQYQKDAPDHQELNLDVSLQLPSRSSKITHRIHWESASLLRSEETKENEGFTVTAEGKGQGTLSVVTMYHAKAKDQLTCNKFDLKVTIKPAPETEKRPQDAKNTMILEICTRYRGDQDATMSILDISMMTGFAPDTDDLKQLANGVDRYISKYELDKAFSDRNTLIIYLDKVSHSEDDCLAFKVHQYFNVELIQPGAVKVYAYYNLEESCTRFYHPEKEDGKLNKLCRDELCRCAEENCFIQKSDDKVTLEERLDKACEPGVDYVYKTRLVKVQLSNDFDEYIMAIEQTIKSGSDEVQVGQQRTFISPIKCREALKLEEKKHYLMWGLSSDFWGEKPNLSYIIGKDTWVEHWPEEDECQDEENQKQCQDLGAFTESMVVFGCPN

Row | Binder | inhibition of hemolysis IC50 [nM]
1 | B1 | < 100
2 | B2 | < 100
3 | B3 | < 100
4 | B4 | < 100
5 | B5 | < 100
6 | B6 | < 100
7 | B7 | < 100
8 | B8 | < 100
9 | B9 | < 100
10 | B10 | < 100
11 | B11 | < 100
12 | B12 | < 100
13 | B13 | < 100
